This assay deals with ESO 9V WT-A*02:01 pMHC (human). The assay can be described thus: BLI (OctetRED 384), pMHC immobilised on streptavidin biosensor, soluble 1G4 TCR in 1:2 dilution series from 24 µM; fit R² = 0.9992.

Drawing on US20200088726A1, this text covers Kd for one substance.

As a reminder, the Kd is the constant that tells how readily two partners part at equilibrium. Turning to 1G4 TCR, the dissociation constant Kd stood at 5.12 µM.
